This note sets out measurements from article PMC12775996 (2025).

Test [1] has as its target T1, adenovirus type 11 vector particles (human adenovirus type 11). In words: SPR; hydrophobic (slow) component of one-to-two model.
Test [2] deals with T2, adenovirus type 13 vector particles (human adenovirus type 13). Described as above.
Test [3] concerns the target T1, adenovirus type 11 vector particles. Description: SPR; electrostatic (fast) component of one-to-two model.
The target in test [4] is T2, adenovirus type 13 vector particles. Described as above.
The target of test [5] is T3, adenovirus type 5 vector particles (wild-type capsid) (human adenovirus type 5). Description: SPR; hydrophobic (slow) component of one-to-two model. (In general: In SPR one partner is held on a chip, and binding of the other changes the refractive index at the surface.)
Test [6] deals with T3, adenovirus type 5 vector particles …. The test is described as above. The source holds these as a separate data set.
Test [7] shares this target. In words: SPR; electrostatic (fast) component of one-to-two model.

B1: human platelet factor 4 (natural protein)
chain: EAEEDGDLQCLCVKTTSQVRPRHITSLEVIKAGPHCPTAQLIATLKNGRKICLDLQAPLYKKIIKKLLES
On to B1, for which the Kd came out at 13.4 nM in test [1], 12.9 nM in test [2], 742 nM in test [3] and 774 nM in test [4]. Besides, the koff in test [1] amounted to 0.000482 s⁻¹; in test [2], 0.000363 s⁻¹; in test [3] it was 0.00879 s⁻¹; in test [4], 0.00761 s⁻¹.

B2: human platelet factor 4 (natural protein)
chain: EAEEDGDLQCLCVKTTSQVRPRHITSLEVIKAGPHCPTAQLIATLKNGRKICLDLQAPLYKKIIKKLLES
modifications: wild-type capsid; copies by convention for the Ad5 virion; hexon is the PF4-binding protein; internal proteins IIIa, VI and VIII left out; Y477 is the fiber residue of the paper (AAQ19310.1)
Regarding B2, the koff in test [5] worked out at 0.00083 s⁻¹; in test [7], 0.0124 s⁻¹. The molecule further displayed a Kd in test [6] of 24.4 nM.

What is called Kd is a measure of binding affinity in units of concentration. A high value points to a looser complex. The koff is the first-order rate constant of dissociation. A low value points to slow dissociation.
